Assay results: US20200095340A1
Substitutions are numbered along the chain they refer to. Numbers in names are those of the source.

B1: anti-DLL3 trispecific protein, DLL3 binder 3A02 (protein, part only; not given: CD3 binder and albumin binder, part only)
chain, part: EVQLVESGGGLVQPGGSLTLSCAASGSSVSFLSLAWYRQAPGKKRELVAGISADGSTAYIDSVKGRFTISRDNAKNSVYLQMNSLRAEDTAVYYCYAYRWRTRYTYWGQGTLVTVSSGGGGSGGGSGGGGSGGGSHHHHHH
B2: anti-DLL3 trispecific protein, DLL3 binder 3A011 (protein, part only; not given: anti-CD3 fragment and anti-albumin domain, part only)
chain, part: B1 chain, part with A53T, A58D
B3: anti-DLL3 trispecific protein, DLL3 binder 2E02 (protein, part only; not given: anti-CD3 fragment and anti-albumin domain, part only)
chain, part: EVQLVESGGGLVQPGGSLTLSCVASGSTSAINAMGWYRRAPGKQRELVAGISSDGSKVYVDSVKGRFTISRDNAKNSVYLQMNSLRAEDTAVYYCYYFRTVSGSSQRYWGQGTLVTVSSGGGGSGGGSGGGGSGGGSHHHHHH
B4: anti-DLL3 trispecific protein, DLL3 binder 1A011 (protein, part only; not given: anti-CD3 fragment and anti-albumin domain, part only)
chain, part: B3 chain, part with A30S, M34I, V60I, Q106Y
B5: anti-DLL3 trispecific protein, DLL3 binder 2E01 (protein, part only; not given: anti-CD3 and anti-albumin domains, part only)
chain, part: EVQLVESGGGLVQPGGSLTLSCVASGSTSSINAMGWYRRAPFKQGELPAGISPDGTKAYADSAKVRFTISRDNAKNSVYLQMNSLRAEDTAVYYCYYFHTVCGTSMGYWGQGTLVTVSSGGGGSGGGSGGGGSGGGSHHHHHH
B6: anti-DLL3 trispecific protein, DLL3 binder 4D011 (protein, part only; not given: CD3 binder and albumin binder, part only)
chain, part: B1 chain, part with S30R, L34M, A53V, A58D
B7: anti-DLL3 trispecific protein, DLL3 binder 4D09-M34L (protein, part only; not given: anti-CD3 fragment and anti-albumin sdAb, part only)
chain, part: B1 chain, part with S30K, A58D, D61L, R99E, R101T
B8: anti-DLL3 trispecific protein, DLL3 binder 4B011 (protein, part only; not given: CD3 binder and albumin binder, part only)
chain, part: B1 chain, part with S30T, L34M, A58V, R101T, Y104G
B9: anti-DLL3 trispecific protein, DLL3 binder 4H11-M34L (protein, part only; not given: anti-CD3 and anti-albumin domains, part only)
chain, part: B1 chain, part with F31R, A53V, A58D, R101T, Y104L
B10: anti-DLL3 trispecific protein, DLL3 binder 3H011 (protein, part only; not given: CD3 binder and albumin binder, part only)
chain, part: B1 chain, part with S30K, L34M, A58V, R101P
B11: anti-DLL3 trispecific protein, DLL3 binder 3H06 (protein, part only; not given: CD3 fragment and albumin sdAb, part only)
chain, part: B1 chain, part with F31Q, L34M, A58D, I60F, R101T, Y104G
B12: anti-DLL3 trispecific protein, DLL3 binder 4E02 (protein, part only; not given: anti-CD3 and anti-albumin domains, part only)
chain, part: B1 chain, part with S28Q, L34M, A58V, R101S
B13: anti-DLL3 trispecific protein, DLL3 binder 3D07 (protein, part only; not given: anti-CD3 and anti-albumin domains, part only)
chain, part: B1 chain, part with S30R, L34M, A58D, R99S, R101T
B14: anti-DLL3 trispecific protein, DLL3 binder 4H04 (protein, part only; not given: anti-CD3 fragment and anti-albumin sdAb, part only)
chain, part: B1 chain, part with S30K, L34M, I51V, A58D, R99E, R101T
B15: anti-DLL3 trispecific protein, DLL3 binder 4B07 (protein, part only; not given: anti-CD3 fragment and anti-albumin sdAb, part only)
chain, part: B1 chain, part with S30G, L34M, A58V, R101T
B16: anti-DLL3 trispecific protein, DLL3 binder 4C06 (protein, part only; not given: anti-CD3 fragment and anti-albumin sdAb, part only)
chain, part: B1 chain, part with G26N, F31K, L34M, R101S
B17: anti-DLL3 trispecific protein, DLL3 binder 2F11 (protein, part only; not given: anti-CD3 and anti-albumin domains, part only)
chain, part: B3 chain, part with T28V, A30S, V60K, Q106M, R107G
B18: anti-DLL3 trispecific protein, DLL3 binder 2E011 (protein, part only; not given: anti-CD3 fragment and anti-albumin sdAb, part only)
chain, part: B3 chain, part with A30S, M34I, K57S, V60A, T100R, Q106M
B19: anti-DLL3 trispecific protein, DLL3 binder 2E010 (protein, part only; not given: anti-CD3 and anti-albumin domains, part only)
chain, part: B3 chain, part with A30S, G35A, V60A, R99H, Q106M
B20: anti-DLL3 trispecific protein, DLL3 binder 2C04 (protein, part only; not given: CD3 fragment and albumin sdAb, part only)
chain, part: B3 chain, part with A30S, I31R, V58L, V60A, S102L, Q106M
B21: anti-DLL3 trispecific protein, DLL3 binder 2E05-M106Y (protein, part only; not given: CD3 binder and albumin binder, part only)
chain, part: B3 chain, part with T28P, A30S, M34Y, V60S, Q106Y, R107S
B22: anti-DLL3 trispecific protein, DLL3 binder 2E05-M106Q (protein, part only; not given: CD3 binder and albumin binder, part only)
chain, part: B3 chain, part with T28P, A30S, M34Y, V60S, R107S
B23: anti-DLL3 trispecific protein, DLL3 binder 1C03 (protein, part only; not given: CD3 fragment and albumin sdAb, part only)
chain, part: B3 chain, part with A30S, G35A, G55N, V60A, S102G, Q106M
B24: anti-DLL3 trispecific protein, DLL3 binder 2A04 (protein, part only; not given: CD3 binder and albumin binder, part only)
chain, part: B3 chain, part with A30S, G35A, V60T, V101T, Q106M
B25: anti-DLL3 trispecific protein, DLL3 binder 4H05 (protein, part only; not given: anti-CD3 fragment and anti-albumin sdAb, part only)
chain, part: B1 chain, part with F31R, L34M, D54R, A58D, R101T, Y104S
B26: anti-DLL3 trispecific protein, DLL3 binder 4A04 (protein, part only; not given: CD3 binder and albumin binder, part only)
chain, part: B1 chain, part with S28R, L34M, D54R, A58D, R101S
B27: anti-DLL3 trispecific protein, DLL3 binder 3D09 (protein, part only; not given: anti-CD3 fragment and anti-albumin domain, part only)
chain, part: B1 chain, part with F31R, L34M, D54N, A58T, R101T, T105R
B28: anti-DLL3 trispecific protein, DLL3 binder 4D02 (protein, part only; not given: CD3 fragment and albumin sdAb, part only)
chain, part: B1 chain, part with S28K, L34M, D54R, A58D, R99Q, R101T
B29: anti-DLL3 trispecific protein, DLL3 binder 4D03 (protein, part only; not given: anti-CD3 fragment and anti-albumin domain, part only)
chain, part: B1 chain, part with S30R, L34M, D54T, A58D, R101T, T102R
B30: anti-DLL3 trispecific protein, DLL3 binder 4A08 (protein, part only; not given: CD3 binder and albumin binder, part only)
chain, part: B1 chain, part with L34M, A58N
B31: anti-DLL3 trispecific protein, DLL3 binder 1C08 (protein, part only; not given: CD3 fragment and albumin sdAb, part only)
chain, part: B3 chain, part with A30R, V48P, V60A, D61V, S105P, Q106M
B32: anti-DLL3 trispecific protein, DLL3 binder 1F09 (protein, part only; not given: CD3 binder and albumin binder, part only)
chain, part: B3 chain, part with S27N, A30S, D54N, V60A, S102T, Q106M
B33: anti-DLL3 trispecific protein, DLL3 binder 1F08 (protein, part only; not given: anti-CD3 fragment and anti-albumin sdAb, part only)
chain, part: B3 chain, part with A30S, G35A, V60K, T100N, Q106M
B34: anti-DLL3 trispecific protein, DLL3 binder 1G06 (protein, part only; not given: anti-CD3 fragment and anti-albumin sdAb, part only)
chain, part: B3 chain, part with A30S, M34I, V60A, D61V, T100K, Q106A

biological target: biotinylated human DLL3 protein expressed as a human IgG1 fusion protein (human) (UniProt Q9NYJ7); assay: Octet, several concentrations of trispecific (60, 20, 6.67, 2.22 nM), human DLL3
Sequence (Q9NYJ7 27-492): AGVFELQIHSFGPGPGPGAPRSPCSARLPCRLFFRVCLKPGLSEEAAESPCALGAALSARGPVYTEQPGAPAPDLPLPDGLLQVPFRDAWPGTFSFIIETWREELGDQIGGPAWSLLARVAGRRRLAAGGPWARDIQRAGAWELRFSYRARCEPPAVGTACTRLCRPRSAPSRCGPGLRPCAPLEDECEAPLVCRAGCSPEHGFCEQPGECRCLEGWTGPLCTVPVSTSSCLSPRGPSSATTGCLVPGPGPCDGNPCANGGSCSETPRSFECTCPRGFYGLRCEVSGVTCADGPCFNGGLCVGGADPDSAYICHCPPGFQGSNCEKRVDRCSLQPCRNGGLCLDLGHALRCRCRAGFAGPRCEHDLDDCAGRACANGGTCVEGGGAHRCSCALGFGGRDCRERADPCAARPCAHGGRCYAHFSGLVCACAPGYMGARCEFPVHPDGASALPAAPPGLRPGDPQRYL

Row | Kd | Binder
1 | 7.8 nM | B1
2 | 7.3 nM | B2
3 | 4.4 nM | B3
4 | 3.5 nM | B4

biological target: human DLL3 on DMS-153 cells (human) (UniProt Q9NYJ7); assay: cell-based or functional assay
Sequence (Q9NYJ7 27-618 limits assumed): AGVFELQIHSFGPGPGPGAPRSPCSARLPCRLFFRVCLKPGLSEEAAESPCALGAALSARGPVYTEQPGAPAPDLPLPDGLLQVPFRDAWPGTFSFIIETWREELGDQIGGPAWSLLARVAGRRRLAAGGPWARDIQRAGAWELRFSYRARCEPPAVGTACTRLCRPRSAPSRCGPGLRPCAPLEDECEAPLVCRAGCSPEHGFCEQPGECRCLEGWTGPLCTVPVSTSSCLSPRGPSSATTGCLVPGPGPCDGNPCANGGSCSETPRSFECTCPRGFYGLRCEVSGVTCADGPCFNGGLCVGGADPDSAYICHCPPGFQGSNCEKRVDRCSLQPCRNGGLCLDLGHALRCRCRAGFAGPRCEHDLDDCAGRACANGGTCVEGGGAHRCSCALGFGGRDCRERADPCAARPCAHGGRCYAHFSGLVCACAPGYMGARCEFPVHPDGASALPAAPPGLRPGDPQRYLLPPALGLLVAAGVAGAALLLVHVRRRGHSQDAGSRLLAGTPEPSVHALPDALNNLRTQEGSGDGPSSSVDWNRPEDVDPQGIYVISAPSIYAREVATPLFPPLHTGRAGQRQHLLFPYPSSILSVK

Row | DMS-153 TDCC EC50 (conditioned medium, human T cells) | TDCC EC50 (CHO expressed, purified protein; method of Example 2, DMS-153 cells) | Binder
5 | 0.033 nM | – | B5
6 | – | 0.098 nM | B6
7 | – | 0.054 nM | B7
8 | 0.048 nM | – | B8
9 | – | 0.13 nM | B9
10 | 0.12 nM | – | B10
11 | 0.12 nM | – | B11
12 | 0.041 nM | – | B12
13 | 0.061 nM | – | B13
14 | 0.051 nM | – | B14
15 | 0.067 nM | – | B15
16 | 0.068 nM | – | B16
17 | 0.059 nM | 0.12 nM | B3
18 | 0.049 nM | – | B17
19 | 0.19 nM | – | B18
20 | 0.031 nM | – | B19
21 | – | 0.043 nM | B20
22 | 0.051 nM | 0.17 nM | B4
23 | – | 0.063 nM | B21
24 | – | 0.041 nM | B22
25 | 0.096 nM | – | B23
26 | 0.081 nM | – | B24

biological target: biotinylated human DLL3 protein expressed as a human IgG1 fusion protein (human) (UniProt Q9NYJ7); assay: Octet, biotinylated human DLL3-IgG1 fusion on streptavidin tips, single 50 nM, conditioned medium (relative KD)

Row | Kd | Binder
27 | 64 nM | B25
28 | 35 nM | B26
29 | 32 nM | B27
30 | 30 nM | B28
31 | 26 nM | B29
32 | 24 nM | B30
33 | 25 nM | B31
34 | 35 nM | B32
35 | 31 nM | B33
36 | 26 nM | B34

biological target: cynomolgus DLL3 protein (cynomolgus); assay: Octet, single concentration of trispecific (60 nM), cynomolgus DLL3
Sequence (chain, as listed by the source): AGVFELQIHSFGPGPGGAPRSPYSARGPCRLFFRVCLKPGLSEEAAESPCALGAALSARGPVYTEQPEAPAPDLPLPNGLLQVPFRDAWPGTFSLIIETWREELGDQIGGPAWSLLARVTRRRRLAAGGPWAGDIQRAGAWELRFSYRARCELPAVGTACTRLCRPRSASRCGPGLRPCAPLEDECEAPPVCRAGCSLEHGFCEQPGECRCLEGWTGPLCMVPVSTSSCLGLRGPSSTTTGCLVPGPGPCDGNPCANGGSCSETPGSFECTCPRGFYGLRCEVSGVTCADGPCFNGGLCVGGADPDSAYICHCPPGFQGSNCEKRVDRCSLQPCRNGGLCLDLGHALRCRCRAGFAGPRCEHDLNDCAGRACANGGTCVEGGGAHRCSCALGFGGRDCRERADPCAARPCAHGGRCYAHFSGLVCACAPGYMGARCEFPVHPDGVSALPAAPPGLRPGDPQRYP

Row | Kd | Binder
37 | 9.5 nM | B1
38 | 8.8 nM | B2
39 | 3.4 nM | B3
40 | 3.6 nM | B4
